Earlier results, collected in publication PMC1950483.

Columns and labels:
Test in all cases: NMR
Settings in all cases: folded FNfn10 in solution
[1] = biological target: Asp23 (UniProt position 1560, LLISWDAPAVT)
[2] = biological target: Asp7 (UniProt position 1544, SDVPRDLEVVA)
[3] = biological target: Glu9 (UniProt position 1546, VPRDLEVVAAT)

Fibronectin, tenth type III domain (FNfn10) (Homo sapiens)
pKa [1]: 5.40
pKa [2]: 5.54
pKa [3]: 5.25
